The values below come from article PMC5636754, “Structural and biochemical characterization of DAXX-ATRX interaction” (Protein & Cell, 2017).

B3: DAXX helical bundle (DHB) domain of death domain-associated protein (DAXX), aa 55-144 (domain or fragment, UniProt Q9UER7 55-144, looked up)
chain: GKKCYKLENEKLFEEFLELCKMQTADHPEVVPFLYNRQQRAHSLFLASAEFCNILSRVLSRARSRPAKLYVYINELCTVLKAHSAKKKLN
notes: Death domain-associated protein (DAXX), DHB domain, residues 55-144; they may stand in the supplementary file; also called DHB_(DAXX); DBH_(DAXX)

Assay [1] has as its target B3. The assay can be described thus: ITC; DHB_(DAXX) titrated with ATRX fragments or peptides. Conditions: both partners purified. (In ITC the heat of successive injections is recorded.)
The target of assay [2] is T1, DAXX helical bundle (DHB) domain of death domain-associated protein (DAXX), aa 55-144 (UniProt Q9UER7 55-144).
T1 chain: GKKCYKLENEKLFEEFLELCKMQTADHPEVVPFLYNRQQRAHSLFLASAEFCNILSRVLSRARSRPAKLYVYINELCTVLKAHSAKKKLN
The assay can be described thus: ITC.

The target of assay [3] is T2, DAXX interaction domain of ATRX (DID_(ATRX)), aa 1,189-1,326 (human, UniProt P46100 1189-1326).
T2 construct: also called full length DID_(ATRX); ATRX_(1,189–1,326)
T2 sequence (looked up): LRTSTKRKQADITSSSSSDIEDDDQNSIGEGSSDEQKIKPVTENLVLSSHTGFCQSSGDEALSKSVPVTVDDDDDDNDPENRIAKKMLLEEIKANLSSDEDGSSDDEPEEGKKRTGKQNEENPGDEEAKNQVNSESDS
In words: ITC; DHB_(DAXX) titrated with ATRX fragments or peptides. Conditions: both partners purified.

B1: ATRX_(1,259–1,285), minimum ATRX motif of 27 residues (peptide, UniProt P46100 1259-1285, looked up)
peptide: DDDDDDNDPENRIAKKMLLEEIKANLS
notes: begins with the polyD loop 1259-DDDDDD-1264
The term Kd denotes the constant that tells how readily two partners part at equilibrium. B1 yielded a Kd in assay [1] of 0.07 µM.

B2: ATRX_(1,265–1,285), α-helix frame only (αDID), wild type peptide (peptide, UniProt P46100 1265-1285, looked up)
peptide: NDPENRIAKKMLLEEIKANLS
notes: the wild type is called 'wild type peptide control'; also called WT
With B2, the Kd in assay [1] turned out to be 1 µM.

In assay [2], NDPQNRIAKKMLLEEIKANLS (peptide, UniProt P46100 1265-1285, looked up, source: synthetic peptide) [ATRX_(1,265–1,285) E1268Q mutant peptide] returned a Kd of 5.6 µM. In assay [1], the binding result is “binds”.

NDPENRIAKKMLLEQIKANLS (peptide, UniProt P46100 1265-1285, looked up, source: synthetic peptide) [ATRX_(1,265–1,285) E1279Q mutant peptide]: the dissociation constant (Kd) in assay [2] came out at 3.2 µM. For the same molecule, in assay [1], the binding result is on record as “binds”.

As for NNPENRIAKKMLLEEIKANLS (peptide, UniProt P46100 1265-1285, looked up, source: synthetic peptide) [ATRX_(1,265–1,285) D1266N mutant peptide], the affinity in assay [2], expressed as Kd, was 7 µM. In assay [1], the binding result is “binds”.

Consider NDPENRIAAKMLLEEIKANLS (peptide, UniProt P46100 1265-1285, looked up, source: synthetic peptide) [ATRX_(1,265–1,285) K1273A mutant peptide], for which, in assay [2], the dissociation constant (Kd) is 2.3 µM. In addition, the binding result in assay [1] was “binds”.

As to NDPENRIAKKMLLEEAKANLS (peptide, UniProt P46100 1265-1285, looked up, source: synthetic peptide) [ATRX_(1,265–1,285) I1280A mutant peptide], the affinity in assay [1], expressed as Kd, was 10.9 µM. In other words, the double-digit micromolar range.

NDPENRIAKKMLAEEIKANLS (peptide, UniProt P46100 1265-1285, looked up, source: synthetic peptide) [ATRX_(1,265–1,285) L1277A mutant peptide] displayed a Kd in assay [1] of 80.6 µM.

Consider B3, for which, in assay [3], the Kd was determined as 4.5 µM. This counts as single-digit micromolar.

B4: ATRX_(1,244–1,285), 42-residue loop-helix segment of DID_(ATRX) (domain or fragment, human, UniProt P46100 1244-1285, looked up)
chain: SSGDEALSKSVPVTVDDDDDDNDPENRIAKKMLLEEIKANLS
notes: source: co-expressed with DHB_(DAXX) and purified for the crystal
Take B4: the Kd in assay [1] was 0.07 µM. This lies in the double-digit nanomolar range.
